From publication PMC7878817

What was measured:
human FcRn (human) = human FcRn (human) (UniProt P55899); test: BLI; pH 6.0
MD65 IgG-YTE (human) = test: BLI

Kd (human FcRn (human)) | fold change of affinity (steady state) against MD65 IgG (MD65 IgG-YTE (human)) | fold change of on-rate against MD65 IgG (MD65 IgG-YTE (human)) | Substance
20 nM |  |  | MD65 IgG-YTE
 | 10 fold | 3 fold | human FcRn (from UniProt P55899 24-297) (receptor)
